B1: Isoform 2 of Bardet-Biedl syndrome 7 protein (Homo sapiens), Q8IWZ6-2 (parent)
chain: MDLILNRMDYLQVGVTSQKTMKLIPASRHRATQKVVIGDHDGVVMCFGMKKGEAAAVFKTLPGPKIARLELGGVINTPQEKIFIAAASEIRGFTKRGKQFLSFETNLTESIKAMHISGSDLFLSASYIYNHYCDCKDQHYYLSGDKINDVICLPVERLSRITPVLACQDRVLRVLQGSDVMYAVEVPGPPTVLALHNGNGGDSGEDLLFGTSDGKLALIQITTSKPVRKWEIQNEKKRGGILCIDSFDIVGDGVKDLLVGRDDGMVEVYSFDNANEPVLRFDQMLSESVTSIQGGCVGKDSYDEIVVSTYSGWVTGLTTEPIHKESGPGEELKINQEMQNKISSLRNELEHLQYKVLQERENYQQSSQSSKAKSAVPSFGINDKFTLNKDDASYSLILEVQTAIDNVLIQSDVPIDLLDVDKNSAVVSFSSCDSESNDNFLLATYRCQADTTRLELKIRSIEGQYGTLQAYVTPRIQPKTCQVRQYHIKPLSLHQRTHFIDHDRPMNTLTLTGQFSFAEVHSWVVFCLPEVPEKPPAGECVTFYFQNTFLDTQLESTYRKGEGVFKSDNISTISILKDVLSKEATKRKINLNISYEINEVSVKHTLKLIHPKLEYQLLLAKKVQLIDALKELQIHEGNTNFLIPEYHCILEEADHLQEEYKKQPAHLERLYG
partner: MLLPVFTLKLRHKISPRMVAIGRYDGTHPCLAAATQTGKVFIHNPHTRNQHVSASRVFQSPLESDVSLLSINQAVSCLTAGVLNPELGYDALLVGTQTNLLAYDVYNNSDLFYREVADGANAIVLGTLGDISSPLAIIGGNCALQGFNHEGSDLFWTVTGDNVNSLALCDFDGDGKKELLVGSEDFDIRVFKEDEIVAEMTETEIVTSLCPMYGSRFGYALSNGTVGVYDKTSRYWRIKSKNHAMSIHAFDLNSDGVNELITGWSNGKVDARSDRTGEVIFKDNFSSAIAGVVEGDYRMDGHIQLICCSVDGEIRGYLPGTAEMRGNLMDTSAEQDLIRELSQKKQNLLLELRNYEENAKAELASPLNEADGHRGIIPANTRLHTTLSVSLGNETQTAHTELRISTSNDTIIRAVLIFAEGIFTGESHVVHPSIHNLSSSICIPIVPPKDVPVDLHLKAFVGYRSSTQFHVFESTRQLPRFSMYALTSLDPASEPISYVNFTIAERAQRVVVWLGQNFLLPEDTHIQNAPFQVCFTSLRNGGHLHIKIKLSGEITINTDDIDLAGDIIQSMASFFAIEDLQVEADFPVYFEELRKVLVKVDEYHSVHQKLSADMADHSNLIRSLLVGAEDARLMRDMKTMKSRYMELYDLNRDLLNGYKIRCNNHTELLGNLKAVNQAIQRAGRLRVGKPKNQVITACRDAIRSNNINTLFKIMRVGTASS

Variants of: B1
Conditions: with bbs2_human BBS2, Q9BXC9

Variant	effect of a mutation on the interaction
S393E	with no effect
S393K	with no effect
A403K	with no effect
A403E	with no effect
I415A	with no effect
I415K	with no effect
I415E	with no effect
S378E	with no effect
S378A	with no effect
S378K	with no effect
K373E	with no effect
K373A	with no effect
D412A	with no effect
D412E	with no effect
D412K	with no effect
D383K	with no effect
D383A	with no effect
D383E	with no effect
I397E	with no effect
I397K	with no effect
I397A	with no effect
D421A	with no effect
D421K	with no effect
D421E	with no effect

Variant	effect of a mutation on the interaction
Q401K	with no effect
Q401E	with no effect
Q401A	with no effect
L408E	with no effect
L408K	with no effect
L408A	with no effect
I381A	with no effect
I381K	with no effect
I381E	with no effect
V427E	with no effect
V427A	with no effect
F385K	with no effect
F385E	with no effect
F385A	with no effect
V413E	with no effect
V413K	with no effect
V413A	with no effect
V407A	with no effect
V407K	with no effect
V407E	with no effect
Q364A	with no effect
Q364E	with no effect
Q364K	with no effect
E399K	with no effect

Variant	effect of a mutation on the interaction
E399V	disrupting interaction strength
E399A	with no effect
K371E	with no effect
K371A	with no effect
V376K	with no effect
V376I	disrupting interaction strength
V376A	with no effect
V376E	with no effect
D390A	with no effect
D390E	with no effect
D390K	with no effect
L418E	with no effect
L418A	with no effect
L418K	with no effect
Q365A	with no effect
Q365E	with no effect
Q365K	with no effect
A392E	with no effect
A392K	with no effect
S424A	with no effect
S424K	with no effect
S424E	with no effect
V400E	with no effect
V400A	with no effect

Variant	effect of a mutation on the interaction
V400K	with no effect
A425K	with no effect
A425E	with no effect
P377A	with no effect
P377K	with no effect
P377E	with no effect
Q368A	with no effect
Q368E	with no effect
Q368K	with no effect
I409K	with no effect
I409A	with no effect
I409E	with no effect
N382E	with no effect
N382A	with no effect
N382K	with no effect
S374A	with no effect
S374K	with no effect
S374E	with no effect
S395E	with no effect
S395A	with no effect
S395K	with no effect
